From article PMC11708414

Biological target: heavy mero-myosin (HMM) (rabbit)

| unregulated myosin ATPase: KM for ACTC protein, 2 mM ATP [µM] | Substance |
| --- | --- |
| 16.6 | R312C cardiac actin variant (R312C-ACTC) (natural protein) |
| 5.63 | wildtype cardiac actin (WT-ACTC) (from UniProt P68032 1-377) (natural protein) |
| 24.8 | R312H cardiac actin variant (R312H-ACTC) (natural protein) |
